One block for each molecule: values may come before it.
Tests used:
[1] = biological target: glycocalicin (the soluble extracellular domain of platelet glycoprotein Ibα) (human) (UniProt P07359); test: cell adhesion assay, competition
[2] = biological target: Mac-1 (αMβ2, CD11b/CD18) on THP-1 monocytic cells (human (endogenous in THP-1)), P11215; test: cell adhesion assay, competition; conditions: remark: other sources report otherwise

UniProt P07359, sequence (P07359 17-531): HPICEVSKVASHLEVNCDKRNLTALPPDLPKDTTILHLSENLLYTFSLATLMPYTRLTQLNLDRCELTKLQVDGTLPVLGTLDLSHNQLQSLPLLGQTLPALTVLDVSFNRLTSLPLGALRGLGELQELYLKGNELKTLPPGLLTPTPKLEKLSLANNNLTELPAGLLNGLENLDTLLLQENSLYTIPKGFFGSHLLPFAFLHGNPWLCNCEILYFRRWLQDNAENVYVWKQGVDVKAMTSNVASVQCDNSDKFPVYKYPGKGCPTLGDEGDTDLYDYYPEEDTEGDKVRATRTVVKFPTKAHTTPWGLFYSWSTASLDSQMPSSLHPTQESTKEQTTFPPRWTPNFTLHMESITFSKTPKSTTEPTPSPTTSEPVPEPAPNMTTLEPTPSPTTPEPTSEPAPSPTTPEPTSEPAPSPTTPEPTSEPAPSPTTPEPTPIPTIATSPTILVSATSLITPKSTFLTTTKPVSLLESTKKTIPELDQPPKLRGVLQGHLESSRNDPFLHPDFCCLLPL

percent inhibition of THP-1 adhesion to GP Ibα [1]: 83%
Molecule: 39/34-kD dispase fragment of vWf encompassing the A1 domain (Leu480–Gly718) (domain or fragment)

percent inhibition of THP-1 adhesion to GP Ibα [2]: 99%
B1: human fibrinogen, P02671-2 20-644; P02675 31-491; P02679-2 27-437 (complex)
chain 1: ADSGEGDFLAEGGGVRGPRVVERHQSACKDSDWPFCSDEDWNYKCPSGCRMKGLIDEVNQDFTNRINKLKNSLFEYQKNNKDSHSLTTNIMEILRGDFSSANNRDNTYNRVSEDLRSRIEVLKRKVIEKVQHIQLLQKNVRAQLVDMKRLEVDIDIKIRSCRGSCSRALAREVDLKDYEDQQKQLEQVIAKDLLPSRDRQHLPLIKMKPVPDLVPGNFKSQLQKVPPEWKALTDMPQMRMELERPGGNEITRGGSTSYGTGSETESPRNPSSAGSWNSGSSGPGSTGNRNPGSSGTGGTATWKPGSSGPGSTGSWNSGSSGTGSTGNQNPGSPRPGSTGTWNPGSSERGSAGHWTSESSVSGSTGQWHSESGSFRPDSPGSGNARPNNPDWGTFEEVSGNVSPGTRREYHTEKLVTSKGDKELRTGKEKVTSGSTTTTRRSCSKTVTKTVIGPDGHKEVTKEVVTSEDGSDCPEAMDLGTLSGIGTLDGFRHRHPDEAAFFDTASTGKTFPGFFSPMLGEFVSETESRGSESGIFTNTKESSSHHPGIAEFPSRGKSSSYSKQFTSSTSYNRGDSTFESKSYKMADEAGSEADHEGTHSTKRGHAKSRPVRGIHTSPLGKPSLSP
chain 2: QGVNDNEEGFFSARGHRPLDKKREEAPSLRPAPPPISGGGYRARPAKAAATQKKVERKAPDAGGCLHADPDLGVLCPTGCQLQEALLQQERPIRNSVDELNNNVEAVSQTSSSSFQYMYLLKDLWQKRQKQVKDNENVVNEYSSELEKHQLYIDETVNSNIPTNLRVLRSILENLRSKIQKLESDVSAQMEYCRTPCTVSCNIPVVSGKECEEIIRKGGETSEMYLIQPDSSVKPYRVYCDMNTENGGWTVIQNRQDGSVDFGRKWDPYKQGFGNVATNTDGKNYCGLPGEYWLGNDKISQLTRMGPTELLIEMEDWKGDKVKAHYGGFTVQNEANKYQISVNKYRGTAGNALMDGASQLMGENRTMTIHNGMFFSTYDRDNDGWLTSDPRKQCSKEDGGGWWYNRCHAANPNGRYYWGGQYTWDMAKHGTDDGVVWMNWKGSWYSMRKMSMKIRPFFPQQ
chain 3: YVATRDNCCILDERFGSYCPTTCGIADFLSTYQTKVDKDLQSLEDILHQVENKTSEVKQLIKAIQLTYNPDESSKPNMIDAATLKSRKMLEEIMKYEASILTHDSSIRYLQEIYNSNNQKIVNLKEKVAQLEAQCQEPCKDTVQIHDITGKDCQDIANKGAKQSGLYFIKPLKANQQFLVYCEIDGSGNGWTVFQKRLDGSVDFKKNWIQYKEGFGHLSPTGTTEFWLGNEKIHLISTQSAIPYALRVELEDWNGRTSTADYAMFKVGPEADKYRLTYAYFAGGDAGDAFDGFDFGDDPSDKFFTSHNGMQFSTWDNDNDKFEGNCAEQDGSGWWMNKCHAGHLNGVYYQGGTYSKASTPNGYDNGIIWATWKTRWYSMKKTTMKIIPFNRLTIGEGQQHHLGGAKQAGDV

From publication PMC2193258
